# From patent US20100303790A1, “USE OF BILIVERDIN REDUCTASE (BVR) AND BVR PEPTIDE FRAGMENTS TO TREAT CORONARY DISORDERS” (UNIVERSITY OF ROCHESTER, priority 2009, published 2010)
# “Also recorded” adds a separate entry of the source. Where a SMILES comes first, the peptide text is derived from it. The star is where a group is joined. Cbz = O=C(OCc1ccccc1)*
# T1: hBVR-derived peptide KKRILHC^281
# T1 chain: KKRILHC
# T2: hBVR-derived peptide KYCCSRK^296
# T2 chain: KYCCSRK
# B1: rat biliverdin reductase (BVR), endogenous in perfused rat heart (protein)
# chain: AEPKRKFGVVVVGVGRAGSVRLRDLKDPRSAAFLNLIGFVSRRELGSLDEVRQISLEDALRSQEIDVAYICSESSSHEDYIRQFLQAGKHVLVEYPMTLSFAAAQELWELAAQKGRVLHEEHVELLMEEFEFLRREVLGKELLKGSLRFTASPLEEERFGFPAFSGISRLTWLVSLFGELSLISATLEERKEDQYMKMTVQLETQNKGLLSWIEEKGPGLKRNRYVNFQFTSGSLEEVPSVGVNKNIFLKDQDIFVQKLLDQVSAEDLAAEKKRIMHCLGLASDIQKLCHQKK
# B2: si-rBVR: retrovirus-expressed siRNA against rat BVR (SEQ ID NO:61, 62) (nucleic acid)
# chain 1: GATCCCCTCTGCAGCATTCCTGAACCTGTTCAAGAGACAGGTTCAGGAATGCTGCAGATTTTTGGAAA
# chain 2: AGCTTTTCCAAAAATCTGCAGCATTCCTGAACCTGTCTCTTGAACAGGTTCAGGAATGCTGCAGAGGG
# modifications: the letters are possibly those of the target site
# B3: si-rHO-2: retrovirus-expressed siRNA against rat HO-2 (SEQ ID NO:63, 64) (nucleic acid)
# chain 1: GATCCCCGAAAACCATACCAAAATGGCATTCAAGAGATGCCATTTTGGTATGGTTTTCTTTTTGGAAA
# chain 2: AGCTTTTCCAAAAAGAAAACCATACCAAAATGGCATCTCTTGAATGCCATTTTGGTATGGTTTTCGGG
# modifications: the letters are possibly those of the target site
# What was measured:
# [1] = tested on: rat neonatal cardiomyocytes; assay: BVR, HO-2 and HO-1 protein levels in rat neonatal cardiomyocytes (western blot); assay type: cell-based; settings: for HO-2 protein level: MG132 50 μg/ml; for effect on isoproterenol-induced BVR protein expression / effect on isoproterenol-induced HO-2 protein expression: 10 μM isoproterenol, western blot
# Experimental: Neonatal Rat Cardiomyocytes: Primary cultures of neonatal rat cardiomyocytes were prepared as described previously (Ding et al., “Functional Role of Phosphodiesterase 3 in Cardiomyocyte Apoptosis: Implication in Heart Failure,” Circulation 111:2469-2476 (2005) which is hereby incorporated by reference in its entirety). Briefly, fragmented ventricular tissue from 1-2 day old Sprague-Dawley rats was subjected to multiple rounds of enzymatic digestion with collagenase II (Worthington, Lakewood, N.J.). The cells were then collected by low speed centrifugation at 4° C. Non-myocytes were removed by two rounds of pre-plating the cells on culture dishes. The enriched cardiomyocytes were cultured in DMEM with 10% FBS and 10% horse serum. The day after cell adhesion, 10 μM cytosine 1-β-D-arabinofuranoside (Sigma, St. Louis, Mo.) was added to inhibit the growth of contaminating non-myocytes.
# Plasmids and Constructs: Adenovirus for expression of an endogenous PKA inhibitor (PKA251 bp) was prepared as described previously (Ding et al., “Functional Role of Phosphodiesterase 3 in Cardiomyocyte Apoptosis: Implication in Heart Failure,” Circulation 111:2469-2476 (2005), which is hereby incorporated by reference in its entirety). Rat BVR and HO-2 siRNA were designed based on the human sequences (Miralem et al., “Small Interference RNA-Mediated Gene Silencing of Human Biliverdin Reductase, but not that of Heme Oxygenase-1, Attenuates Arsenite-Mediated Induction of the Oxygenase and Increases Apoptosis in 293A Kidney Cells,” J Biol Chem 280:17084-17092 (2005), which is hereby incorporated by reference in its entirety). The BVR targeting site is at nucleotides 94-114, and the HO-2 targeting site is at nucleotides 73-93, downstream of the start codon in each case. Oligonucleotides containing the sequence of a 21 nucleotide small interference RNA were synthesized as follows: BVR siRNA, 5′-GATCCCC ([…]) TTCAAGAG ([…]) TTTTTGGAAA (SEQ ID NO:61) and 5′-AGCTTTTCCAAAAA ([…]) TCTCTTGAA ([…]) GGG (SEQ ID NO:62; HO-2 siRNA, 5′-GATCCCC ([…]) TTCAAGAGA ([…]) TTTTTGGAAA (SEQ ID NO:63) and 3′-AGCTTTTCCAAAAA ([…]) TCTCTTGAA ([…]) GGG (SEQ ID NO:64). Complementary oligonucleotides were annealed, then ligated into pSuper-Retro vector (OligoEngine Co. Seattle, Wash.). E. coli clones containing the desired constructs were identified by restriction analysis and verified by DNA sequencing. The retroviral DNA vectors for generating BVR si-rRNA and […] were transfected into the HEK293A packaging cell line, and the supernatant containing the expressed si-rBVR or si-rHO-2 retrovirus was then titrated in NIH3T3 cells. Retrovirus expressing siRNA was used to infect cells at a multiplicity of infection of 4 plaque-forming units/cell. The plasmid pcDNA-hBVR has previously been described (Lerner-Marmarosh et al., “Human Biliverdin Reductase: A Member of the Insulin Receptor Substrate Family with Serine/Threonine/Tyrosine Kinase Activity,” Proc Natl Acad Sci US A 102:7109-7114 (2005), which is hereby incorporated by reference in its entirety); pcDNA-hHO2 was constructed by cloning the HO-2 open reading frame into pcDNA3. […]
# [2] = molecular target: T1, hBVR-derived peptide KKRILHC^281
# [3] = molecular target: T2, hBVR-derived peptide KYCCSRK^296
# [4] = tested on: rat neonatal cardiomyocytes; assay: Apoptosis of cardiomyocytes (cleaved caspase-3, TUNEL, DNA electrophoresis); assay type: cell-based; settings: for DNA fragmentation by electrophoresis of genomic DNA: ISO treatment coupled with siRNA; for number of cardiac apoptotic cells (TUNEL): siRNA followed by isoproterenol, relative to absence of ISO stimulation; for level of cleaved caspase-3 protein: with 10 μM isoproterenol, 24 hours
# Experimental: Western Blot Analysis: Cell lysates were prepared by homogenization in RIPA buffer (40 mM Tris-HCl, pH 7.5, 1 mM EDTA, 1 mM DTT, 0.1 mM Na3VO4, 10 μg/ml aprotinin, 5 μg/ml pepstatin, 20 μg/ml leupeptin, 1 mM bezamidine followed by centrifugation at 800×g for 10 minutes at 4° C. (Ding et al., “Functional Role of Phosphodiesterase 3 in Cardiomyocyte Apoptosis: Implication in Heart Failure,” Circulation 111:2469-2476 (2005), which is hereby incorporated by reference in its entirety). Supernatant proteins were resolved by SDS-PAGE and transferred to nitrocellulose. Western blots were examined using antibodies against β-actin (Cell Signaling), BVR (Huang et al., “Detection of 10 Variants of Biliverdin Reductase in Rat Liver by Two-Dimensional Gel Electrophoresis,” J Biol Chem 264:7844-7849 (1989), which is hereby incorporated by reference in its entirety), HO-1, HO-2 (Panahian et al., “Site of Injury-Directed Induction of Heme Oxygenase-1 and -2 in Experimental Spinal Cord Injury Differential Functions in Neuronal Defense Mechanisms?” J Neurochem 76:539-554 (2001), which is hereby incorporated by reference in its entirety), and cleaved caspase-3 (Cell Signaling, Beverly Mass.). The secondary antibody was horseradish peroxidase-conjugated goat anti-rabbit IgG (1:2,000, Bio-Rad).
# Analysis of Apoptosis: The terminal deoxyribonucleotide transferase-mediated dUTP nick-end labeling (TUNEL) assay was used to detect in situ DNA fragmentation, using the In Situ Cell Death Detection Kit (Roche) as described previously (Ding et al., “Functional Role of Phosphodiesterase 3 in Cardiomyocyte Apoptosis: Implication in Heart Failure,” Circulation 111:2469-2476 (2005), which are hereby incorporated by reference in their entirety). In addition, the cells were stained for cardiomyocyte-specific sarcomeric α-actinin with the antibody EF-53 to distinguish cardiomyocytes from contaminating fibroblasts; and only EF-53 positive cells were counted. Three independent experiments were performed and an average of 1,000 EF-53 positive cells from random fields were analyzed.
# DNA Electrophoresis: Total cellular DNA was isolated from untreated and treated cells by lysis in 10 mM Tris-HCl, pH 7.8; 1 mM, EDTA, 10 mM NaCl, 1% (w/v) SDS and 1 mg/ml proteinase K at 60° C. for 2 hours. The lysate was extracted twice each with phenol-choloroform (1:1, v/v) and chloroform, followed by precipitation with ethanol. The precipitate was collected by centrifugation, washed once in 70% ethanol, and resuspended in TE containing 1 mg/ml RNase at 37° C. for 30 min. DNA was resolved by electrophoresis in 2.0% agarose gels containing ethidium bromide.
# It was noted that the level of cleaved caspase-3 protein, a marker for apoptosis, was increased by the inhibition of isoproterenol-induced expression of either BVR or HO-2 using siBVR or si-rHO-2, respectively (FIG. 6A). […] That apoptosis was occurring in cardiomyocytes, per se, was determined by triple staining of the cells with anti-α-actinin antibody to detect cardiomyocytes, TUNEL staining for cells undergoing apoptosis, and DAPI to detect nuclei (FIG. 6C). The merged images in FIG. 6C clearly indicate that the cardiomyocytes are undergoing apoptosis.
Molecule,HO-2 protein level ([1]; BVR gene expression inhibited by si-BVR),HO-2 protein level ([1]; absence of isoproterenol stimulation),"BVR activity (rate of conversion of biliverdin to bilirubin at pH 6.7, NADH cofactor) in perfused rat heart [2]","BVR activity (rate of conversion of biliverdin to bilirubin at pH 6.7, NADH cofactor) in perfused rat heart [3]",DNA fragmentation by electrophoresis of genomic DNA [4],number of cardiac apoptotic cells (TUNEL) [4],level of cleaved caspase-3 protein [4],effect on isoproterenol-induced BVR protein expression [1],effect on isoproterenol-induced HO-2 protein expression [1]
CC(C)C[C@@H](C=O)NC(=O)[C@H](CC(C)C)NC(=O)[C@H](CC(C)C)NC(=O)OCc1ccccc1 [MG132] (Cbz-Leu-Leu-Leu-aldehyde),increased the HO-2 protein levels,increased,,,,,,,
B1,,,"peptide KKRILHC^281 blocked the activity of BVR, whether ISO was present or not",Treatment of the heart with peptide KYCCSRK^296 alone increased BVR activity,,,,,
B2,,,,,DNA fragmentation could be detected,increase,increased,efficiently blocked,effectively blocked; also recorded: also blocked
B3,,,,,DNA fragmentation could be detected,increase,increased,no effect,ablated
